{"source": "patent US20240400616A1", "about": "(Bicycle, published 2024)", "key": {"[1]": {"molecular_target": "T1, human Nectin-4 (protein used in the fluorescence polarisation direct and competition binding assays) (human, UniProt Q96NY8 32-349)", "T1 construct": "It may be the Gly32-Ser349 FLAG construct described for SPR", "T1 sequence (looked up)": "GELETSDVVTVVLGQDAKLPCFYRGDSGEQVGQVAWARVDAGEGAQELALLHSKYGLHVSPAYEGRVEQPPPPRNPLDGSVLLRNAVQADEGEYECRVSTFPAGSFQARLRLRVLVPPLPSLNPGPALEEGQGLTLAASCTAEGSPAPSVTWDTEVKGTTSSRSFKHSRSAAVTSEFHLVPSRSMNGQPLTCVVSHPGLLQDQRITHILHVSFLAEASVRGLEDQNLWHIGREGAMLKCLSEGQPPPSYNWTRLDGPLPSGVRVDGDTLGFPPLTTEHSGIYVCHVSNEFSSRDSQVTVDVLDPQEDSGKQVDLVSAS", "assay": "fluorescence polarisation direct binding assay", "method": "(§1) Affinity of the peptides of the invention for human Nectin-4 (Ki) was determined using a fluorescence polarisation assay, in accordance with the methods disclosed in WO 2016/067035. Peptides of the invention with a fluorescent tag (either fluorescein, SIGMA or Alexa Fluor488™, Fisher Scientific) were diluted to 2.5 nM in PBS with 0.01% tween 20 or 50 mM HEPES with 100 mM NaCl and 0.01% tween pH 7.4 (both referred to as assay buffer). […] Measurements were conducted on a BMG PHERAstar FS equipped with an “FP 485 520 520” optic module which excites at 485 nm and detects parallel and perpendicular emission at 520 nm. The PHERAstar FS was set at 25° C. with 200 flashes per well and a positioning delay of 0.1 second, with each well measured at 5 to 10 minute intervals for 60 minutes. […] Data was analysed using Systat Sigmaplot version 12.0. mP values were fit to a user defined quadratic equation to generate a Kd value: f=ymin+ (ymax−ymin)/Lig*((x+Lig+Kd)/2-sqrt((((x+Lig+Kd)/2)\\hat{ }2)−(Lig*x)))."}, "[2]": {"molecular_target": "T2, Human Nectin-4 (residues Gly32-Ser349; NCBI RefSeq: NP_112178.2) with C-terminal FLAG tag, biotinylated (human, UniProt Q96NY8 32-349, randomly biotinylated with EZ-Link Sulfo-NHS-LC-LC-Biotin)", "T2 construct": "range 32-349; also called human Necin-4 protein; biotinylated Nectin-4; not shown: C-terminal FLAG tag", "T2 sequence (looked up)": "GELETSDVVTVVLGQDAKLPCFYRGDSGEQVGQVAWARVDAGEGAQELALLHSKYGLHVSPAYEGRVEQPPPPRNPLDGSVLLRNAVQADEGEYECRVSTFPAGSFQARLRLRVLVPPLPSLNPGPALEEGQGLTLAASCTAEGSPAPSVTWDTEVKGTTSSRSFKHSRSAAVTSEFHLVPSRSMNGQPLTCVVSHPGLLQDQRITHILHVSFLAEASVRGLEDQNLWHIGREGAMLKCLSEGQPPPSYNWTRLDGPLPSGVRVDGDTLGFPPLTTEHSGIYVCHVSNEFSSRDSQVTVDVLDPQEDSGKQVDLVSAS", "assay": "Biacore SPR, biotinylated Nectin-4 captured on streptavidin chip, peptide as analyte; n = 1"}, "[3]": {"molecular_target": "T1, human Nectin-4 (protein used in the …)", "assay": "fluorescence polarisation competition; competitor: fluorescent tracer SEQ ID NO: 2; 2 experiments", "method": "as §1\n(§2) Peptides were diluted to an appropriate concentration in assay buffer as described in the direct binding assay with a maximum of 5% DMSO, then serially diluted 1 in 2. […] Measurements were conducted as for the direct binding assay, however the gain was determined prior to the first measurement. […]"}, "[4]": {"molecular_target": "T1, human Nectin-4 (protein used in the …)", "assay": "fluorescence polarisation competition; competitor: fluorescent tracer SEQ ID NO: 2; 6 experiments", "method": "as §1, §2"}, "[5]": {"molecular_target": "T2, Human Nectin-4 (residues Gly32-Ser349; …)", "assay": "Biacore SPR, biotinylated Nectin-4 captured on streptavidin chip, peptide as analyte; n = 4"}, "[6]": {"molecular_target": "T3, Nectin-4 on MDA-MB-468 cells (UniProt Q96NY8 32-510, limits assumed)", "T3 construct": "whole, on cells; the cell line is a human breast cancer line; also called PVRL-4", "T3 sequence (looked up)": "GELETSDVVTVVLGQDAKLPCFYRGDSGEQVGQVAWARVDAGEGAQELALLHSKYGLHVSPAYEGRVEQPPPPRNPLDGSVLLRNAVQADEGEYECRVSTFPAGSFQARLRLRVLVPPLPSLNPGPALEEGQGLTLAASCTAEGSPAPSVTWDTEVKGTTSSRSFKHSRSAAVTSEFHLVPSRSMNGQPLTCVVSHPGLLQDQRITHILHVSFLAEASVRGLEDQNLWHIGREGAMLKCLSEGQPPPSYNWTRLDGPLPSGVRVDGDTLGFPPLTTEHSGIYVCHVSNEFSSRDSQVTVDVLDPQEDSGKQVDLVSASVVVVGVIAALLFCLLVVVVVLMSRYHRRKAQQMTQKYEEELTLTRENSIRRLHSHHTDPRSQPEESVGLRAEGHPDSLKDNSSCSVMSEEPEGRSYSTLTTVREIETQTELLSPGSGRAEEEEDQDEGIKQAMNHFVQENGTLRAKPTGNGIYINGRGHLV", "assay": "HCS cell-binding assay on MDA-MB-468 cells at 4°C: cells incubated with the test agent, washed, detected with a fluorescent antibody to MMAE; readout membrane mean intensity CH2 (RFU) [A]", "method": "(§3) HCS assay was used in Nectin-4 BDC binding study. Cells were incubated with test agent and then washed. Detection was by a fluorescent antibody to MMAE."}, "[7]": {"molecular_target": "T3, Nectin-4 on MDA-MB-468 cells", "assay": "HCS cell binding assay on MDA-MB-468 cells, detection with fluorescent anti-MMAE antibody", "method": "as §3"}, "[8]": {"molecular_target": "T3, Nectin-4 on MDA-MB-468 cells", "assay": "historical Kd as printed in Table 44; assay not described"}, "[9]": {"molecular_target": "T2, Human Nectin-4 (residues Gly32-Ser349; …)", "assay": "Biacore SPR, biotinylated Nectin-4 captured on streptavidin chip, conjugate as analyte"}}, "note": "*1 amine or outer side, *2 acyl side, *3 side chain or, on linkers, in order; H or OH if unused. Bridges are numbered along the chain shown (N, C = ends). Where no end group is shown, it is not given here. [ ]: non-standard residue; d: D form. TATA = O=C(CC[*:1])N1CN(C(=O)CC[*:2])CN(C(=O)CC[*:3])C1; fluorescein = fluorescein (Fl) label on lysine; 1Nal = N[C@@H](Cc1cccc2ccccc12)C(=O)O; PABC = O=C(OCc1ccc(N[*:1])cc1)[*:2]; Glutaryl = O=C(CCCC(=O)[*:2])[*:1]; Hyp = O=C(O)[C@@H]1C[C@@H](O)CN1; hArg = N=C(N)NCCCC[C@H](N)C(=O)O; Cit = NC(=O)NCCC[C@H](N)C(=O)O; βAla = NCCC(=O)O; Sar = CNCC(=O)O", "data": [{"binder": "ACPFGCHTDWSWPIWCA[Sar][Sar][Sar][Sar][Sar][Sar]K(fluorescein) (linker 2-6-16 via TATA, also called fluorescent peptide; tracer)", "note": "[ACPFGCHTDWSWPIWCA-Sar6-K(FI) (SEQ ID NO: 2)]", "values": [{"measurement": "Kd", "setting": "[1]", "result": 5, "unit": "nM"}]}, {"binder": "CPADCMRDWSTPPWC (core as printed Ci-P1-[1Nal]2-[dD]3-Cii-M4-[HArg]5-D6-W7-S8-T9-P10-[HyP]11-W12-Ciii (1Nal = 1-naphthylalanine, dD = D-Asp, HArg = homoarginine, HyP = hydroxyproline); Ci, Cii and Ciii covalently bound to the TATA scaffold, Bicyclic peptide)", "note": "[BCY8116: (SEQ ID NO: 1), cyclised with TATA]", "values": [{"measurement": "Kd", "setting": "[2]", "result": 0.372, "unit": "nM"}]}, {"binder": "Ac-[βAla][Sar][Sar][Sar][Sar][Sar]CP[1Nal][dD]CM[hArg]DWSTP[Hyp]WC (linker 7-11-21 via TATA, Bicyclic peptide)", "note": "[BCY8122: Ac-[B-Ala][Sar5]-(SEQ ID NO: 1), cyclised with TATA]", "values": [{"measurement": "Ki", "setting": "[3]", "result": 3, "unit": "nM"}, {"measurement": "Kd", "setting": "[2]", "result": 0.89, "unit": "nM"}]}, {"binder": "CPADCMRDWSTPPWC (N-terminal acetyl; core as printed Ci-P1-[1Nal]2-[dD]3-Cii-M4-[HArg]5-D6-W7-S8-T9-P10-[HyP]11-W12-Ciii (1Nal = 1-naphthylalanine, dD = D-Asp, HArg = homoarginine, HyP = hydroxyproline); Ci, Cii and Ciii covalently bound to the TATA scaffold, Bicyclic peptide)", "note": "[BCY8126: Ac-(SEQ ID NO: 1), cyclised with TATA]", "values": [{"measurement": "Ki", "setting": "[4]", "result": 2.7, "unit": "nM"}, {"measurement": "Kd", "setting": "[5]", "result": 1.07, "unit": "nM"}]}, {"binder": "{MMAE-PABC-Cit-Val-Glutaryl}-[βAla][Sar][Sar][Sar][Sar][Sar][Sar][Sar][Sar][Sar][Sar]CP[1Nal][dD]CM[hArg]DWSTP[Hyp]WC (linker 12-16-26 via TATA, Bicyclic peptide drug conjugate (BDC) with an MMAE to drug ratio of 1; also called BT8009)", "values": [{"measurement": "EC50 (read off the curve)", "setting": "[6]", "result": "~3", "unit": "nM"}, {"measurement": "Kd", "setting": "[7]", "result": 3.52, "unit": "nM"}, {"measurement": "Kd", "setting": "[8]", "result": 5.18, "unit": "nM"}, {"measurement": "Kd", "setting": "[9]", "result": 5.12, "unit": "nM"}]}]}
